Assay results reported in the DeepSol protein solubility set.

Test: soluble on expression in E. coli; label from the status in PepcDB or PDB records
For “GMMNDYLNFLDGRVSVRRFDPDAVLPNDLIKDMLEHASYAPSGNNFQPWRVVVVKNKNKQEDLKKLAALQPQVATASAVFLLFGDENAYDLTWWQEFHVQKGIITKDEAAARAERIRQYFDLHPEDKETQGLRLDVGLFAMNLMQVVRVYGYDSVPMRGVDFDAIKTYLDMPNGWEPILMLPVGKALQAGNPHVRKSVAEFAEIIE”, the “soluble on expression in E. coli” value was “soluble”.
For “MGSDKIHHHHHHMAKRKVPPEFVVERDDYKCIRCLACVRVCSYGANFYDENANRVYTENTKCVGCHFCEAICPTEAITVRKNDFDIRPLAHWTPEHLIGIMKQAETGGVLLTSMGNDRPYFSYFDRIVLNASQVTNPSIDPLREPMEIRTYIGRKEEKLEIEEDEDGTVKLKTEIAPQLKLEVPVMFTAMSYGSISLNAILSLARAARTVGTFFNTGEGGLPKELREFKDNMIVQVASGRFGVSADYLNAGSAVEIKIGQGAKPGIGGHLPGEKVTEPISETRMIPVGTDALSPAPHHDIYSIEDLRQLIYAIKEATRYEKPVGVKIAAVHNVAPIAAGAVRAGADYIVIDGIRGGTGAAPKITRDHVGIPIEFAVAVVDQRLREEGIRHMASIVVAGGIRNSADVIKAIALGADAVYIGTAALISLGCHLCQTCYLGKCNWGIATQDPKLTKRLNPEIGARRAANLLRAWAHEIKEILGGMGINAIESLRGNREVLRGVGLHEYELKLLGIKPAGEAW”, the “soluble on expression in E. coli” value was “not soluble”.
For “GSAPRVQEELCLVCGDRASGYHYNALTCEGCKGFFRRSVTKSAVYCCKFGRACEMDMYMRRKCQECRLKKCLAVGMRPECVVPENQCAMKRREKKAQKEKDKMTTSPSSQHGSPGIHRD”, the “soluble on expression in E. coli” value was “soluble”.
With “MSLGFFNKLRQLAEDGTKMAQDGYARFNNAAFADATMAACALIGAADGQIDSQERSRTAQFITSSDKLRTFDVSKLREKYERYCDVISRDFDFGKIELMQVIGKVRKPEEARAVVQLAVVIANADGDFDAREQAVMREVIHALGLSPAEFGEGGSHHHHHH” the “soluble on expression in E. coli” value was “soluble”.
In the case of “MSLKQILNHARIVLADRVIDNGALEINDGRIAAIHEHALPDGEDLAGALLLPGLVEIHTDNLEKHLMPRNGVLWPILPAVITHDAQCVAAGITTVLDALAVGDLEGESVRLDTLHSSFDAINQGMREGALRADHFFHLRCELAYPGLLDELEALIAHPAVKLVSVMDHTPGQRQYRDLEQYKKYYGKKKVGWNEDTFLAAVAERKTKQAQYAGRHKQAVVELAQARGIALASHDDTDEAHIEEALRDGVAISEFPTTREAAAAAKRHGLATVMGAPNVVRGGSHSGNVAALELARHDLLDILSSDYVPASLLHGAWLLHAQAGWSLPRAVAAVSLNPAHSVGLADRGDIAVGQRADLVAMIVHGDVPLVRQVWNSGRRVFEGHHHHHH”, the “soluble on expression in E. coli” value was “soluble”.
For “MAPPAQPPPVAVKNTKEAWTKFMKKKAEQAVYPSKESSTLQPKYLFDASTLVLPMCFECRRASRHLEMAINLCSICRANFEAQIASRFFRHDVLLVKRKLEANQDTTNLKE”, the “soluble on expression in E. coli” value was “not soluble”.
For “MEEPKLILTVKNNKNNKCIIEILNRLYLKDLNSKAEEIIKNVILVYTSLTPIMAYGLLISAPPSCLAKIYPVDLVIHSVKEREIIDKITEFLKKNIQFKTFYVDCYDRGIKINCREVEIGIGIGLRGFASVDYKNPEKVIVVNVIKDSTYMSVIKKGQEKVSVISLR”, the “soluble on expression in E. coli” value was “soluble”.
With “MGSDKIHHHHHHMGGNSLSKELYDWLGYSSETATASAFVQQRDKIRPEALKLLFHEFTRLTVSENSLQDYRLLAVDGSDLRLPSNSKDGFSSIRNSEDSKNYNLVHLDAMYDLMGKVYVDASVQSKKGMNEHKALVSMVDQSEINGNVIAIMDRGYESFNNIAHFQEKSWYYIIRAKESYGIISRLSLPDYPEYDEEIMLTLTRRQTKETLPLLKAYPHRYRWIQPHTTFDFIKPKDSKFYDLHFRAVRFAIADGVYETVYTNLNAEDFPPEKLKQLYNLRWGIETSFKELKYAVGLASLHSKKKDFILQEIFARLILYNYSSIIMHHISISEDLRVNFPVALNICRQFLRELIPAVQVLKLIGKHLSPIRPGRQFPRHQNPISAVGFQYRII” the “soluble on expression in E. coli” value was “not soluble”.
In the case of “MRKAAALSLLVLVILSTTLAGCNFGKGSNEEDSKGTNLKLPCSIVSTISGEDVLYYEIEGDSLKKLDLDLKGHMEVYSEELGLAVYREFADKGTNLIITNGVKEHKISVEGNIEELIISPKGTKLLYRYNSGDKIGYKVLDLQNFKEFDFNENLAISGENVKFVNEDQLILYGVDLEKRQSGLYIYNIKDGSYTLEKQIVKAFIDYIDLVEDQVVLYTQSSIDGKKNCYIYNLDSKKESVISNEVGEIESLCKIGNVVYFIGTKGEGLRSLYSIDITNNKLDRLVYDFPKNISEKSKLIVVGDNIYFLGFNDSKEKNALYRYNLKDKSIKLIDSNKGQYIIIKMAGDPLEHHHHHH”, the “soluble on expression in E. coli” value was “not soluble”.
With “MGSDKIHHHHHHMTQCPLVSISCLTYNHAPYLRQCLDGFVMQITSFPIEILIYDDASGDGTQNIIEEYQKKYPDIIKPIYQTENQYSKGVKVGFVYNYSRAKGEYIAFCEGDDYWTDPYKLQKQIDFLECYSDYVICSHRYRICLKEEKVMNDEIKPIGDLSDGMSFDLSFLIRGGWLFQPLSVVYRKSALDLDTYSKYAIYIDVALFYAILKNGKGYCMPDVMGVYRIHEKGVWSGLDLNHQRIFSLKAREAIYDVEKTDEAAMFILSQFSRPMGRFLVVKECSMFMRITKILISHFGLRFVLRMWFDRLFLNKKLCVNEFYQIKDFCKRKKNG” the “soluble on expression in E. coli” value was “not soluble”.
With “MEQKNEEIEAIDDRMIAGVEVNFQKMRRSKHKTEERLTSGQVDAFAQKLFEAYPDGSLEGFLDIDDVQKKKLDEQRQEFTGDYPIVQPVLDGSRELMVVLRYNPLYHAVEIYDPVQIYDSEGIPMVVKPIREQIVNLFAHLFLDKIRLIFDIEYEQQADKCSDRLRAVGAMMAIALGYNPAAMDYNLKGISKLVKKILNSESPDFKKFEKADIGTLNAKYSGQNRVTMFIGNNGETLLATRNVYGLEKHALKTGLGKMDKNGHVVERESFLEEEFHDETIYKQFHAPDLGMGKPDNVNAIKLFHVDYRDYDLQNANGLERPIYLEPYKPVQSDCFAVPNLTSTLDRVSSNGELLKYVNEVMQSITPYTPYHLHAQSVEYLRYTPRHMNMCINPLQAIRAWALLANMADGKTNTDLLNFVGKYTYPGQLENNKMMNDDILNLHFEAEKLFEGCVRVFTELPKHLWHNEDIRIIQNSYYGGKSLRGAMQHHCFATDPDGLYSCHRINEEVALSTHGAVNFVVPENHAPNWRASIALVSAMDCTFYWKTYAKPKLMDNFNFVNEQYGASKCVGYFAHADFKFFEDIYCLESRIPGVRLYITFESPDKMDSKKEFMSKLHEKIQTCGDWHTTFDSPVFLPLCTTSTPLSLYAHAKASGLSRIFSSEKSELLEMKSIPARGGARQFSTLYDHYHKTVFEVHGSDPKVENFMRKRPRRMFDQFSPARAHQCVDDSMAELHGKYQMKNPTKEFNNKMNINPLLTYRENHLNHDEPSFEWLHENHEFDLKDPKALMFNKPFYYVMTRALVGKNQLIVCAGYFNNTTWVKQQ” the “soluble on expression in E. coli” value was “not soluble”.
With “MGSDKIHHHHHHMNLRGKMIVIKFGGSSLRSEFKSAVSLIKALSEEKDVVVVVSALKGITDLLEKYTDTFDSRYAVEVSKTYLEFGKRMGIDTSSLSPYLKQLFNPPDLPPQALRDYILSIGELLSAAMIAEKANGAVIFPWDLFVAHGSFGNGFIDIKKSKRNVKLVKEALESGKIPIIPGFIANLNGYRVTLGRGGSDYSAVALGVLLNSELVAIMSDVEGIFTADPKMIPYSLLIPYMSYDEILIASKYGMEAIQWKAAKLAKEYEALILFGRASDWRMGTVVSNSSSHMPLLSYDQGKLLVMNMDSEIPYEVVEEGEFWRVYRVPKRDSIKIIKELHRKIIYQENAQLLGRVKA” the “soluble on expression in E. coli” value was “not soluble”.
In the case of “MSLADLEEALLIIDSDEDVSRHMKEHLTSRGFHVVHCASVKCFTDLKAQVTPDIIIGDLTSDDIKSLYSLLKDVHPRPPIVIHSKRADAENILGALRSGASDYIVKPVADVAVLDEAIQRQIDQVRVYRENQQYRYDLELANKELRAGLEELQADQRAGRHVQMKMLPEREVEYGGIQFDHCIKPSLYLSGDFFDYFRLSSDKIAFYFADVSGHGASSAFVTVLLKNLSNRLQRNLRRQSSDDILYPDRFLKRVNAELLDTDLGKHLTMFAGVIDLQTRVLSYSMGAHFPMPVMSVNGVSRYLDGKGPPVGLFDDPVYPLYEEPLAPGFSLVICSDGLLEVINAKSLAEKEQALLETVQEARHTIPELEKAFGLRWITELPDDIAIVSIMETTEGHHHHHH”, the “soluble on expression in E. coli” value was “soluble”.
In the case of “MSLKSVASGKELAGLRVMVIDDSKTIRRTAETLLKREGCEVVTAIDGFEALAKIADQKSQIIFVDIMMPRLDGYQTCALIKNNNLFKSTPVIMLSSKDGLFDKARGRVVGSEQYLTKPFTREELLSAIRTYVNPLKLAEGHHHHHH”, the “soluble on expression in E. coli” value was “not soluble”.
In the case of “MGSSHHHHHHSSGLVPRGSHMGHGSRLPYGEEVINGIADIYRQEADHPVAVGFMNMSRPSIPEAINELAAMGVEKIIVTPVFLAHGVHTKHDIPHILGLDNGAEGHHHHEHEHEHEEFEFDGEIVYTEPLGADPRIAEIIRDRVKSAI”, the “soluble on expression in E. coli” value was “soluble”.
In the case of “MGSDKIHHHHHHMNKRNLLIAIPALCSGYLHGQTQPASPNVIYILMDDLGYGDIGCFGQDKIETPHIDRLCSEGIKLTQHYSGSPVSAPARCVLMTGMHSGHAQIRFNNELAERGAVNNYDSVYVHKELEGQFPLQANTMTIGRMMQQAGYTTGCFGKWGLGYPGSEGTPNKQGFDRFYGYNCQRQSHTYYPPFLYNDEERVYLSNKVTDPHRSPLDKGADPNDPASYAKYTQKEYANDLIFDELMGFVDANKRKPFFLMWTTPLPHVSLQAPERWVQHYVKKFGDEKPYTGQAGYLPCRYPHATYAAMISYFDEQIGQLIEKLKAEHLYENTLIVFTSDNGPTFNGGSDSPWFNSGGLFNSAYGWGKCFLHEGGIRVPAIITWPGKIKPGTQSDHICAFQDVMPTLAELAGITCPPTDGISFLPTLLGKKGKQKEHTYLYWEYPDPRIGNKAIRMGKWKGIITDIRKGNTQMQLYNLETDIREEHDVAAQHPDIVKRFERLMKEARNGPDF”, the “soluble on expression in E. coli” value was “not soluble”.
For “MKIVIAPDSFKESLSAEKCCQAIKAGFSTLFPDANYICLPIADGGEGTVDAMVAATGGNIVTLEVCGPMGEKVNAFYGLTGDGKTAVIEMAAASGLMLVAPEKRNPLLASSFGTGELIRHALDNDIRHIILGIGGSATVDGGMGMAQALGVRFLDADGQALAANGGNLARVASIEMDECDPRLANCHIEVACDVDNPLVGARGAAAVFGPQKGATPEMVEELEQGLQNYARVLQQQTEINVCQMAGGGAAGGMGIAAAVFLNADIKPGIEIVLNAVNLAQAVQGAALVITGEGRIDSQTAGGKAPLGVASVAKQFNVPVIGIAGVLGDGVEVVHQYGIDAVFSILPRLAPLAEVLASGETNLFNSARNIACAIKIGQGIKN”, the “soluble on expression in E. coli” value was “soluble”.
For “MKIFNNVHCRIRNTISCSNYIFSAVWNFLISVFINKTNFNNSVYCRIFKVSIGLRKSISSTTRTRWVPVVFICSRSTNRWTGARSVNPIRNLIYIKLSILNKVRPIFRLEHHHHHH”, the “soluble on expression in E. coli” value was “not soluble”.
For “FAVSSELSACGRARTYRVEGQLFYGSVEDFMAAFDFREPLERVTIDVSRAHIWDISSVQALDMAVLKFRREGAEVRIVGMNEASETLVDRLALHDRPGALDRLTAH”, the “soluble on expression in E. coli” value was “not soluble”.
